Source: publication PMC3743106 (Extremophiles : life under extreme conditions, 2013)
Several values for one entry are separate records, joined by “and”; a condition that tells them apart may be missing. Equal values may be shown once.

Legend:
[1] = molecular target: Thermococcus kodakarensis replication factor C large subunit (Thermococcus kodakarensis) (UniProt Q5JHP1); assay: SEC
SEC = molecular target: the molecule itself; assay: SEC

Chain of Thermococcus kodakarensis replication factor C large subunit (Thermococcus kodakarensis) (Q5JHP1 whole entry): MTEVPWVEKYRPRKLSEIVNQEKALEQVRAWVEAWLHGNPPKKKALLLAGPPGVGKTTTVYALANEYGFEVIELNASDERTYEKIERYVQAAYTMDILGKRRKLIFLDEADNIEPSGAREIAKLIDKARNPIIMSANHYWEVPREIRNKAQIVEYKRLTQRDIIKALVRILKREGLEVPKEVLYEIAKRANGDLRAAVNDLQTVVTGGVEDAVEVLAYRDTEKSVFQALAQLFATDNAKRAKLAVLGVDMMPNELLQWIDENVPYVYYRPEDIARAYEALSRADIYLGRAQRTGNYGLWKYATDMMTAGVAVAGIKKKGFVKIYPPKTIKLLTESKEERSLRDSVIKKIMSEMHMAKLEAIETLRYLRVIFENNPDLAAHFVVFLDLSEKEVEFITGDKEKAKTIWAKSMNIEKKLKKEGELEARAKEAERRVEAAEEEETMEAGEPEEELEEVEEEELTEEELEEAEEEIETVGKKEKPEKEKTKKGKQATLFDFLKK

Molecule | stoichiometry N [1] | stoichiometry N (SEC)
Thermococcus kodakarensis replication factor C small subunit (natural protein) | 4 | 
Thermococcus kodakarensis PCNA2 (proliferating cell nuclear antigen 2, encoded by TK0582) (natural protein, UniProt Q5JFD3 1-253, looked up) MTFEIVFDSAREFESLIATLEKFFDEAVFQVNMEGIQMRAIDPSRVVLVDLNLPEMLFSKYSVESEEAIAFDLKRFLKVLKLARSRDTLVLRKGGENFLEVGLLGDENTWFKLPLIDANTPEIEIPSLPWTVKAVVLAGALKRAVKAAKLVSDSIYFMATPEKLTFKAEGNDSEVRTVLTMEDPGLLDLEHKMTKAKSAYGVAYLEDILRSLADADEVIIRFGFDIPLLLKYMVRDAGEVSFLIAPRVEEGRS |  | 3 and 6
Thermococcus kodakarensis PCNA1 (proliferating cell nuclear antigen 1, encoded by TK0535) (natural protein, UniProt Q5JF32 1-249, looked up) MPFEVVFDGAKEFADLIATASNLIDEAAFKFTEEGISMRAMDPSRVVLIDLNLPESIFSKYEVEEPETIGINMDQFKKILKRGKAKDTLILRKGDENFLEITFEGTAKRTFRLPLIDVEELELELPELPFTAKVVLLGEVLKEGIKDASLVSDAIKFIAKENEFTMKAEGETNEVEIRLTLEDEGLLDLEVEEETKSAYGIRYLSDMVKGIGKADEVILRFGNEMPLQMEYMIRDEGRLTFLLAPRVEE |  | 2 and 3
